Assay results from the supplement of paper PMC5998384.

Legend:
HeLa Kyoto [1] = assay: solubility in G1/S (NP-40 vs SDS abundance) (log2 ratio); higher = more soluble; conditions: cell cycle stage: G1/S
HeLa Kyoto [2] = assay: melting temperature (median over replicates), in situ; higher = more thermally stable
HeLa Kyoto [3] = assay: solubility change mitosis vs G1/S (difference of NP-40 vs SDS log2 ratios) (log2 ratio difference); higher = more soluble in mitosis
HeLa Kyoto [4] = assay: thermal stability score vs G1/S (z-score of summed log2 fold changes over temperatures); higher = more thermally stable than in G1/S
[5] = cell cycle stage: early G1 (4.5 h after nocodazole release)
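Throughout, for melting temperature (median over replicates), in situ: HeLa Kyoto cells synchronized by double thymidine or nocodazole block, proteins quantified by TMT10plex mass spectrometry, three independent biological replicates.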
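Throughout, for solubility change mitosis vs G1/S (difference of NP-40 vs SDS log2 ratios): synchronized HeLa Kyoto cells (double thymidine block for G1/S, nocodazole release for mitosis), protein amounts in NP-40 versus SDS lysates quantified by mass spectrometry, three biological replicates.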
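Throughout, for solubility in G1/S (NP-40 vs SDS abundance): HeLa Kyoto cells arrested at G1/S by double thymidine block, proteins quantified by TMT10plex mass spectrometry in mild NP-40 versus SDS extracts, three biological replicates.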
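Throughout, for thermal stability score vs G1/S (z-score of summed log2 fold changes over temperatures): synchronized HeLa Kyoto cells, proteins quantified by TMT10plex mass spectrometry, three biological replicates, mitosis taken 0.5 h after nocodazole release, G1/S directly after double thymidine block.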

Substance | solubility in G1/S (log2) (HeLa Kyoto [1]) | melting temperature (HeLa Kyoto [2]; cell cycle stage: mitosis) | solubility change mitosis (log2) (HeLa Kyoto [3]) | thermal stability score (HeLa Kyoto [4]; [5]) | thermal stability score (HeLa Kyoto [4]; cell cycle stage: mitosis) | melting temperature (HeLa Kyoto [2]; cell cycle stage: G1/S)
MKEPLLGGECDKAVASQLGLLDEIKTEPDNAQEYCHRQQSRTQENELKINAVFSESASQLTAGIQLSLASSGVNKMLPSVSTTAIQVSCAGCKKILQKGQTAYQRKGSAQLFCSIPCITEYISSASSPVPSKRTCSNCSKDILNPKDVISVQLEDTTSCKTFCSLSCLSSYEEKRKPFVTICTNSILTKCSMCQKTAIIQYEVKYQNVKHNLCSNACLSKFHSANNFIMNCCENCGTYCYTSSSLSHILQMEGQSHYFNSSKSITAYKQKPAKPLISVPCKPLKPSDEMIETTSDLGKTELFCSINCFSAYSKAKMESSSVSVVSVVHDTSTELLSPKKDTTPVISNIVSLADTDVALPIMNTDVLQDTVSSVTATADVIVDLSKSSPSEPSNAVASSSTEQPSVSPSSSVFSQHAIGSSTEVQKDNMKSMKISDELCHPKCTSKVQKVKGKSRSIKKSCCADFECLENSKKDVAFCYSCQLFCQKYFSCGRESFATHGTSNWKKTLEKFRKHEKSEMHLKSLEFWREYQFCDGAVSDDLSIHSKQIEGNKKYLKLIIENILFLGKQCLPLRGNDQSVSSVNKGNFLELLEMRAKDKGEETFRLMNSQVDFYNSTQIQSDIIEIIKTEMLQDIVNEINDSSAFSIICDETINSAMKEQLSICVRYPQKSSKAILIKERFLGFVDTEEMTGTHLHRTIKTYLQQIGVDMDKIHGQAYDSTTNLKIKFNKIAAEFKKEEPRALYIHCYAHFLDLSIIRFCKEVKELRSALKTLSSLFNTICMSGEMLANFRNIYRLSQNKTCKKHISQSCWTVHDRTLLSVIDSLPEIIETLEVIASHSSNTSFADELSHLLTLVSKFEFVFCLKFLYRVLSVTGILSKELQNKTIDIFSLSSKIEAILECLSSERNDVYFKTIWDGTEEICQKITCKGFKVEKPSLQKRRKIQKSVDLGNSDNMFFPTSTEEQYKINIYYQGLDTILQNLKLCFSEFDYCKIKQISELLFKWNEPLNETTAKHVQEFYKLDEDIIPELRFYRHYAKLNFVIDDSCINFVSLGCLFIQHGLHSNIPCLSKLLYIALSWPITSASTENSFSTLPRLKTYLCNTMGQEKLTGPALMAVEQELVNKLMEPERLNEIVEKFISQMKEI [ZMYM1] | -0.155 | 50.4 °C | -0.06 | 0.329 | 0.818 | –
MKFLLDILLLLPLLIVCSLESFVKLFIPKRRKSVTGEIVLITGAGHGIGRLTAYEFAKLKSKLVLWDINKHGLEETAAKCKGLGAKVHTFVVDCSNREDIYSSAKKVKAEIGDVSILVNNAGVVYTSDLFATQDPQIEKTFEVNVLAHFWTTKAFLPAMTKNNHGHIVTVASAAGHVSVPFLLAYCSSKFAAVGFHKTLTDELAALQITGVKTTCLCPNFVNTGFIKNPSTSLGPTLEPEEVVNRLMHGILTEQKMIFIPSSIAFLTTLERILPERFLAVLKRKISVKFDAVIGYKMKAQ [HSD17B11] | -0.334 | 54.8 °C | -0.138 | 0.073 | -3.33 | 55.1 °C
MKGTRAIGSVPERSPAGVDLSLTGLPPPVSRRPGSAATTKPIVRSVSVVTGSEQKRKVLEATGPGGSQAINNLRRSNSTTQVSQPRSGSPRPTEPTDFLMLFEGSPSGKKRPASLSTAPSEKGATWNVLDDQPRGFTLPSNARSSSALDSPAGPRRKECTVALAPNFTANNRSNKGAVGNCVTTMVHNRYTPSERAPPLKSSNQTAPSLNNIIKAATCEGSESSGFGKLPKNVSSATHSARNNTGGSTGLPRRKEVTEEEAERFIHQVNQATVTIQRWYRHQVQRRGAGAARLEHLLQAKREEQRQRSGEGTLLDLHQQKEAARRKAREEKARQARRAAIQELQQKRALRAQKASTAERGPPENPRETRVPGMRQPAQELSPTPGGTAHQALKANNTGGGLPAAGPGDRCLPTSDSSPEPQQPPEDRTQDVLAQDAAGDNLEMMAPSRGSAKSRGPLEELLHTLQLLEKEPDVLPRPRTHHRGRYAWASEVTTEDDASSLTADNLEKFGKLSAFPEPPEDGTLLSEAKLQSIMSFLDEMEKSGQDQLDSQQEGWVPEAGPGPLELGSEVSTSVMRLKLEVEEKKQAMLLLQRALAQQRDLTARRVKETEKALSRQLQRQREHYEATIQRHLAFIDQLIEDKKVLSEKCEAVVAELKQEDQRCTERVAQAQAQHELEIKKLKELMSATEKARREKWISEKTKKIKEVTVRGLEPEIQKLIARHKQEVRRLKSLHEAELLQSDERASQRCLRQAEELREQLEREKEALGQQERERARQRFQQHLEQEQWALQQQRQRLYSEVAEERERLGQQAARQRAELEELRQQLEESSSALTRALRAEFEKGREEQERRHQMELNTLKQQLELERQAWEAGRTRKEEAWLLNREQELREEIRKGRDKEIELVIHRLEADMALAKEESEKAAESRIKRLRDKYEAELSELEQSERKLQERCSELKGQLGEAEGENLRLQGLVRQKERALEDAQAVNEQLSSERSNLAQVIRQEFEDRLAASEEETRQAKAELATLQARQQLELEEVHRRVKTALARKEEAVSSLRTQHEAAVKRADHLEELLEQHRRPTPSTK [CEP131] | 0.0853 | 49.2 °C | 0.357 | -0.343 | 1.44 | 50.5 °C
MKI67 | -1.82 | 52 °C | 1.29 | 5.66 | 0.979 | 49.4 °C
MKKASRSVGSVPKVSAISKTQTAEKIKPENSSSASTGGKLVKPGTAASLSKTKSSDDLLAGMAGGVTVTNGVKGKKSTCPSAAPSASAPAMTTVENKSKISTGTASSTKRSTSTGNKESSSTRERLRERTRLNQSKKLPSAGQGANDMALAKRSRSRTATECDVRMSKSKSDNQISDRAALEAKVKDLLTLAKTKDVEILHLRNELRDMRAQLGINEDHSEGDEKSEKETIMAHQPTDVESTLLQLQEQNTAIREELNQLKNENRMLKDRLNALGFSLEQRLDNSEKLFGYQSLSPEITPGNQSDGGGTLTSSVEGSAPGSVEDLLSQDENTLMDHQHSNSMDNLDSECSEVYQPLTSSDDALDAPSSSESEGIPSIERSRKGSSGNASEVSVACLTERIHQMEENQHSTSEELQATLQELADLQQITQELNSENERLGEEKVILMESLCQQSDKLEHFSRQIEYFRSLLDEHHISYVIDEDVKSGRYMELEQRYMDLAENARFEREQLLGVQQHLSNTLKMAEQDNKEAQEMIGALKERSHHMERIIESEQKGKAALAATLEEYKATVASDQIEMNRLKAQLENEKQKVAELYSIHNSGDKSDIQDLLESVRLDKEKAETLASSLQEDLAHTRNDANRLQDAIAKVEDEYRAFQEEAKKQIEDLNMTLEKLRSDLDEKETERSDMKETIFELEDEVEQHRAVKLHDNLIISDLENTVKKLQDQKHDMEREIKTLHRRLREESAEWRQFQADLQTAVVIANDIKSEAQEEIGDLKRRLHEAQEKNEKLTKELEEIKSRKQEEERGRVYNYMNAVERDLAALRQGMGLSRRSSTSSEPTPTVKTLIKSFDSASQVPNPAAAAIPRTPLSPSPMKTPPAAAVSPMQRHSISGPISTSKPLTALSDKRPNYGEIPVQEHLLRTSSASRPASLPRVPAMESAKTLSVSRRSSEEVKRDISAQEGASPASLMAMGTTSPQLSLSSSPTASVTPTTRSRIREERKDPLSALAREYGGSKRNALLKWCQKKTEGYQNIDITNFSSSWNDGLAFCALLHTYLPAHIPYQELNSQDKRRNFMLAFQAAESVGIKSTLDINEMVRTERPDWQNVMLYVTAIYKYFET [SPECC1L] | -0.183 | 50.7 °C | 0.448 | 0.147 | -0.333 | 50.8 °C
MKLIILEHYSQASEWAAKYIRNRIIQFNPGPEKYFTLGLPTGSTPLGCYKKLIEYYKNGDLSFKYVKTFNMDEYVGLPRDHPESYHSFMWNNFFKHIDIHPENTHILDGNAVDLQAECDAFEEKIKAAGGIELFVGGIGPDGHIAFNEPGSSLVSRTRVKTLAMDTILANARFFDGELTKVPTMALTVGVGTVMDAREVMILITGAHKAFALYKAIEEGVNHMWTVSAFQQHPRTVFVCDEDATLELKVKTVKYFKGLMLVHNKLVDPLYSIKEKETEKSQSSKKPYSD [GNPDA1] | 0.183 | 62.9 °C | -0.206 | -0.841 | -0.7 | 61.5 °C
MKLKDTKSRPKQSSCGKFQTKGIKVVGKWKEVKIDPNMFADGQMDDLVCFEELTDYQLVSPAKNPSSLFSKEAPKRKAQAVSEEEEEEEGKSSSPKKKIKLKKSKNVATEGTSTQKEFEVKDPELEAQGDDMVCDDPEAGEMTSENLVQTAPKKKKNKGKKGLEPSQSTAAKVPKKAKTWIPEVHDQKADVSAWKDLFVPRPVLRALSFLGFSAPTPIQALTLAPAIRDKLDILGAAETGSGKTLAFAIPMIHAVLQWQKRNAAPPPSNTEAPPGETRTEAGAETRSPGKAEAESDALPDDTVIESEALPSDIAAEARAKTGGTVSDQALLFGDDDAGEGPSSLIREKPVPKQNENEEENLDKEQTGNLKQELDDKSATCKAYPKRPLLGLVLTPTRELAVQVKQHIDAVARFTGIKTAILVGGMSTQKQQRMLNRRPEIVVATPGRLWELIKEKHYHLRNLRQLRCLVVDEADRMVEKGHFAELSQLLEMLNDSQYNPKRQTLVFSATLTLVHQAPARILHKKHTKKMDKTAKLDLLMQKIGMRGKPKVIDLTRNEATVETLTETKIHCETDEKDFYLYYFLMQYPGRSLVFANSISCIKRLSGLLKVLDIMPLTLHACMHQKQRLRNLEQFARLEDCVLLATDVAARGLDIPKVQHVIHYQVPRTSEIYVHRSGRTARATNEGLSLMLIGPEDVINFKKIYKTLKKDEDIPLFPVQTKYMDVVKERIRLARQIEKSEYRNFQACLHNSWIEQAAAALEIELEEDMYKGGKADQQEERRRQKQMKVLKKELRHLLSQPLFTESQKTKYPTQSGKPPLLVSAPSKSESALSCLSKQKKKKTKKPKEPQPEQPQPSTSAN [DDX24] | -1.47 | 50.5 °C | 1.07 | -0.338 | 1.04 | 49.9 °C
MKLKEVDRTAMQAWSPAQNHPIYLATGTSAQQLDATFSTNASLEIFELDLSDPSLDMKSCATFSSSHRYHKLIWGPYKMDSKGDVSGVLIAGGENGNIILYDPSKIIAGDKEVVIAQNDKHTGPVRALDVNIFQTNLVASGANESEIYIWDLNNFATPMTPGAKTQPPEDISCIAWNRQVQHILASASPSGRATVWDLRKNEPIIKVSDHSNRMHCSGLAWHPDVATQMVLASEDDRLPVIQMWDLRFASSPLRVLENHARGILAIAWSMADPELLLSCGKDAKILCSNPNTGEVLYELPTNTQWCFDIQWCPRNPAVLSAASFDGRISVYSIMGGSTDGLRQKQVDKLSSSFGNLDPFGTGQPLPPLQIPQQTAQHSIVLPLKKPPKWIRRPVGASFSFGGKLVTFENVRMPSHQGAEQQQQQHHVFISQVVTEKEFLSRSDQLQQAVQSQGFINYCQKKIDASQTEFEKNVWSFLKVNFEDDSRGKYLELLGYRKEDLGKKIALALNKVDGANVALKDSDQVAQSDGEESPAAEEQLLGEHIKEEKEESEFLPSSGGTFNISVSGDIDGLITQALLTGNFESAVDLCLHDNRMADAIILAIAGGQELLARTQKKYFAKSQSKITRLITAVVMKNWKEIVESCDLKNWREALAAVLTYAKPDEFSALCDLLGTRLENEGDSLLQTQACLCYICAGNVEKLVACWTKAQDGSHPLSLQDLIEKVVILRKAVQLTQAMDTSTVGVLLAAKMSQYANLLAAQGSIAAALAFLPDNTNQPNIMQLRDRLCRAQGEPVAGHESPKIPYEKQQLPKGRPGPVAGHHQMPRVQTQQYYPHGENPPPPGFIMHGNVNPNAAGQLPTSPGHMHTQVPPYPQPQPYQPAQPYPFGTGGSAMYRPQQPVAPPTSNAYPNTPYISSASSYTGQSQLYAAQHQASSPTSSPATSFPPPPSSGASFQHGGPGAPPSSSAYALPPGTTGTLPAASELPASQRTGPQNGWNDPPALNRVPKKKKMPENFMPPVPITSPIMNPLGDPQSQMLQQQPSAPVPLSSQSSFPQPHLPGGQPFHGVQQPLGQTGMPPSFSKPNIEGAPGAPIGNTFQHVQSLPTKKITKKPIPDEHLILKTTFEDLIQRCLSSATDPQTKRKLDDASKRLEFLYDKLREQTLSPTITSGLHNIARSIETRNYSEGLTMHTHIVSTSNFSETSAFMPVLKVVLTQANKLGV [SEC31A] | 0.0843 | 50 °C | -0.144 | 1.55 | 4.43 | 48.9 °C
